In article PMC12478413 (bioRxiv, 2025) one finds Kd, stoichiometry N and stoichiometry N (GCase E326K : LIMP2 (2:2)) data, which are given here for 3 molecules.

Test [1] addresses recombinant human LIMP2 lumenal domain (residues 36-430) (human) (UniProt Q14108). As to the kind of experiment: SPR.
For test [2], the target named is recombinant GCase E326K variant (human GBA1 residues A40-Q536) (human). As to the kind of experiment: dynamic light scattering.
For test [3], the target named is recombinant human LIMP2 lumenal domain (residues 36-430) (human) (UniProt Q14108). In words: SEC-MALS. On the technique in general: Size exclusion chromatography separates by hydrodynamic size, large species first.
For test [4] the target is unchanged. As to the kind of experiment: SPR. This is another data set of the same source. In general terms: SPR reads the build-up and loss of mass on a sensor chip optically.
Test [5] concerns the target recombinant GCase E326K variant (human GBA1 residues A40-Q536) (human). As to the kind of experiment: SEC.
For test [6], the target named is recombinant GCase E326K+R329A double mutant (human). In words: SEC.
In test [7] the target is T1, recombinant WT GCase (glucocerebrosidase, human GBA1 residues A40-Q536) (human, UniProt P04062 40-536).
T1 sequence (looked up): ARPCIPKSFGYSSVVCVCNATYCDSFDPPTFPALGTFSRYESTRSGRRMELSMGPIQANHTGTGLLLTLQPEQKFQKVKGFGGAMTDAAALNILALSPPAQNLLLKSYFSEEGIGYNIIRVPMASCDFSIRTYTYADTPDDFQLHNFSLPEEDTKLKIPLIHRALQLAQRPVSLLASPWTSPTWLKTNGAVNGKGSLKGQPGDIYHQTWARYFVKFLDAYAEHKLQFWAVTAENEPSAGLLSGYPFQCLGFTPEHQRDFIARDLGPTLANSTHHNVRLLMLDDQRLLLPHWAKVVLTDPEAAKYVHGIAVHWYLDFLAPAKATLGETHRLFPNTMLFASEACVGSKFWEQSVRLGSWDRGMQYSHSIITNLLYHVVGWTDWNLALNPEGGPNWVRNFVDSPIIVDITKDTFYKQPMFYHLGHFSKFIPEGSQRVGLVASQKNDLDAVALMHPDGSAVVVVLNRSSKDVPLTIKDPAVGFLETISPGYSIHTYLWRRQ
As to the kind of experiment: SPR.

The target in test [8] is T1, recombinant WT GCase …. In words: SPR. This is another data set of the same source.

Like-named read-outs stand apart in the source and are kept apart here.

The Kd is the free concentration of one partner at which half of the binding sites on the other are occupied at equilibrium, for simple one-to-one binding. In general, stoichiometry N refers to a count of units in the complex or per binding partner. “recombinant GCase E326K variant (human GBA1 residues A40-Q536) (enzyme)”: the dissociation constant (Kd) in test [1] was found to be 3.89 nM; in test [4], 2.44 nM. The stoichiometry N in test [2] and in test [5] was 2 each time. Moreover, the stoichiometry N (GCase E326K : LIMP2 (2:2)) in test [3] turned out to be 1.

On to “recombinant GCase E326K+R329A double mutant (enzyme)”, for which the stoichiometry N in test [6] was determined as 2.

B1: recombinant human LIMP2 lumenal domain (residues 36-430) (domain or fragment, UniProt Q14108 36-430, looked up)
chain: SIEKKIVLRNGTEAFDSWEKPPLPVYTQFYFFNVTNPEEILRGETPRVEEVGPYTYRELRNKANIQFGDNGTTISAVSNKAYVFERDQSVGDPKIDLIRTLNIPVLTVIEWSQVHFLREIIEAMLKAYQQKLFVTHTVDELLWGYKDEILSLIHVFRPDISPYFGLFYEKNGTNDGDYVFLTGEDSYLNFTKIVEWNGKTSLDWWITDKCNMINGTDGDSFHPLITKDEVLYVFPSDFCRSVYITFSDYESVQGLPAFRYKVPAEILANTSDNAGFCIPEGNCLGSGVLNVSICKNGAPIIMSFPHFYQADERFVSAIEGMHPNQEDHETFVDINPLTGIILKAAKRFQINIYVKKLDDFVETGDIRTMVFPVMYLNESVHIDKETASRLKSMIN
modifications: biotin on the Avitag (BirA, for SPR)
With B1, the results for the Kd in test [7] and in test [8] were 19.9 nM and 14.4 nM, respectively.
